T1: huFAP-His recombinant protein (R&D Systems cat. #3715-SE) (human, UniProt Q12884 26-760)
T1 construct: Bought His-tagged recombinant protein; also called huFAP protein; human FAP (R&D, cat. No. 3715-SE)
T1 sequence: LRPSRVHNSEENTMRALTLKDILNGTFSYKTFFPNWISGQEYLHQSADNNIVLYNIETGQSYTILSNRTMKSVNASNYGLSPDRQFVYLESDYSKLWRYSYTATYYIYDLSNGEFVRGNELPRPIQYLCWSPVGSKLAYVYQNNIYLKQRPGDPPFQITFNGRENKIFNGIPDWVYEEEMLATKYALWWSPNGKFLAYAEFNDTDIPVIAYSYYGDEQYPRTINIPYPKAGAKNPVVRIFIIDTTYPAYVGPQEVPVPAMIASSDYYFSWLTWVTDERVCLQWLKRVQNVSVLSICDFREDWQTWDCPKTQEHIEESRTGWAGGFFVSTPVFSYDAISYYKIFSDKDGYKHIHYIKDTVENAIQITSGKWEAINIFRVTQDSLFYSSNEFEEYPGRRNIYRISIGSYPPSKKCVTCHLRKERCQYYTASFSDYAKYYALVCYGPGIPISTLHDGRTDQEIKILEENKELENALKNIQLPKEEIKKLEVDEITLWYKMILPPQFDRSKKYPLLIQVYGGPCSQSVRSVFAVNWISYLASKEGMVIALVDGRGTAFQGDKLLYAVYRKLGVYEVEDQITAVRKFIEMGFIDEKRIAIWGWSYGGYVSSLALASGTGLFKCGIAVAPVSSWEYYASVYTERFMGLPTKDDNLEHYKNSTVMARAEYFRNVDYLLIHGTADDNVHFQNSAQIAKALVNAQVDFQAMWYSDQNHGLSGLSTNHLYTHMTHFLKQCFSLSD


Tests used:
[1] = biological target: human CD26 (huCD26) expressed on 293FF cells (human, UniProt P27487 1-766); assay: FACS, 293FF cells transiently transfected with huCD26
human CD26 (huCD26) expressed on 293FF cells, sequence (P27487 whole entry): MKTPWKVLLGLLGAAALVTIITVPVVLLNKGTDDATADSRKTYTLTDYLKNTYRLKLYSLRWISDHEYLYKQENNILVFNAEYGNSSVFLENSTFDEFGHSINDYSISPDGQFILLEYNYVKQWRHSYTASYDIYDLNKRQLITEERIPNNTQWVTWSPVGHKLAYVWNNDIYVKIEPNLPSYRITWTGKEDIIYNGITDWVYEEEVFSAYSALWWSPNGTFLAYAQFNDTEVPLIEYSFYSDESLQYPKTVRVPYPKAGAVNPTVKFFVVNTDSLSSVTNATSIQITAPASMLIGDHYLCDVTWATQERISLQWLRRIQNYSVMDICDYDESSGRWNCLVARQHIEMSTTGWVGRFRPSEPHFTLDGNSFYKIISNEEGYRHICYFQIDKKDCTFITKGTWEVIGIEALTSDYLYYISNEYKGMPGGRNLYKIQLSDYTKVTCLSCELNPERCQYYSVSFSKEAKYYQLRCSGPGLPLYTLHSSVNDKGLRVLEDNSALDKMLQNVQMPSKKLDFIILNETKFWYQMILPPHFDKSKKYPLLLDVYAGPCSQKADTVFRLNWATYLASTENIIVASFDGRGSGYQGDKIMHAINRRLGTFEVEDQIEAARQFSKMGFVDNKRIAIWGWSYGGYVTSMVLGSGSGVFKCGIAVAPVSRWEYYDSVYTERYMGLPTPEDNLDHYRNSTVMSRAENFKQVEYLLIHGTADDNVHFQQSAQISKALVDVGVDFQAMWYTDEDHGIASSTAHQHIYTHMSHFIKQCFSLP
Description: The binding of all test and control antibodies to the cells was tested at a single concentration of 2.5 ug/ml. Goat-anti-human IgG F(ab)2-PE (Invitrogen, H10104) was used as secondary antibody (1:100 in FACS buffer). Ab0625 was used at 10 ug/ml and its binding was detected using Ab0250 (Becton Dickinson, 550767) (1:100 in FACS buffer). The FACS buffer containing PBS (Gibco, cat. #10010-015), 0.5% BSA (Thermo Scientific, cat. #37525), and 2 mM EDTA (Invitrogen, cat. #15575-020) was kept ice cold throughout the assay.
The target cells were harvested, counted, and centrifuged for 5 min at 300 g at 4 °C. Cells were then resuspended in FACS buffer at a concentration of 1×10⁶ cells/ml and transferred (200,000 cells/well) to a U-bottom 96-well FACS plate (BD, cat. #353910). Cells were then centrifuged for 3 min at 300 g at 4° C. and supernatant was discarded. 50 μl of primary antibody solutions were added to the cells, mixed, and incubated for 30 min at 2-8° C. in the dark. Cells were washed by adding 150 μl FACS buffer and centrifuged for 3 min at 300 g at 4° C. Supernatant was discarded, and cells were washed again by adding 200 μl FACS buffer to the plate. Cells were then centrifuged for 3 min at 300 g at 4° C. and afterwards the supernatant was discarded. 50 μl of secondary antibody solutions were added to the cells, mixed, and incubated for 30 min at 2-8° C. in the dark. Cells were then washed by adding 150 μl FACS buffer to the plate and centrifuged for 3 min at 300 g at 4° ° C. Supernatant was discarded and cells were washed again by adding 200 μl FACS buffer to the plate and centrifuged for 3 min at 300 g at 4° C. Supernatant was discarded and cells were fixated by adding 100 μl/well ice-cold Fixation buffer (2% formaldehyde solution in PBS, Sigma-Aldrich, cat. #47608-250ML-F). Cells were incubated for 15 min on ice in the dark. Afterwards, 100 μl ice-cold PBS was added to the cells and cells were centrifuged for 3 at 300 g at 4° C. Supernatant was discarded and cells were resuspended in 120 μl FACS buffer.

[2] = biological target: T1, huFAP-His recombinant protein (R&D …); assay: competition ELISA, huFAP-His coated, IgG at 0.05 ug/ml; competitor sibrotuzumab analog Fab
Description: ELISA was used to investigate the competitive binding of the human anti-FAP antibody panel with Fab fragments generated from the sibrotuzumab analog to huFAP-His protein (R&D Systems cat. #3715-SE).
The huFAP-His protein was coated (0.5 ug/ml, 50 μl/well) on two 96-wells ELISA plates (Certified Nunc-Immuno Maxisorp F96, Greiner Bio-One, cat. #655061). The plates were sealed (EASYseal, Greiner, cat. #676001) and incubated overnight at 4° ° C. The plates were washed with PBS/0.05% Tween 20 (PBS, Gibco, cat. #10010-015) (Tween 20, Merck, cat. #8.22184.0500) using the ELISA plate washer (BioTek 405 TS). Afterwards, the plates were emptied. Fab fragments of sibrotuzumab analog (25 ug/ml) were incubated on one plate for 30 min at RT, whereas the second plate was incubated with 300 μl/well PBS/2% BSA block buffer (BSA, Sigma, cat. #A3294-500 g) for 1 hour at RT. Afterwards, the plates were emptied. Antibodies from the human anti-FAP panel (0.05 ug/ml, 50 μl/well) were added, plates were covered with a EASYseal, and incubated for one hour at RT. The plates were washed three times with wash buffer using the ELISA washer and emptied. […] The plates were then washed three times with wash buffer using the ELISA washer and emptied. BD OptEIATMB Substrate Reagent Set (BD, cat. #555214) was then added to the wells (50 μl/well) and developed for maximal 10 min. Afterwards, 1 M H2SO4 (50 μl/well) was added to the wells to stop the staining reaction (color changes from blue to yellow). The plates were then measured using an ELISA plate reader (BioTek ELx808).

Binder | binding result [1] | binding result [2]
anti-human FAP bivalent monospecific IgG comprising heavy chain variable region SEQ ID NO: 69 (antibody, V domains shown, IgG1 format, common light chain VK1-39/JK1; also called human/mouse cross-reactive FAP IgG) VH: EVQLVETGGGLIQPGGSLRLSCAASGFTVSSNYMSWVRQAPGKGLEWVSVIYSGGSTYYADSVKGRFTISRDNSKNTLYLQMNSLRAEDTAVYYCARGPTDAYPYLDYLWGQGTLVTVSS VL: not shown | no binding (tested: 2.5 ug/ml) | –
anti-human FAP bivalent monospecific IgG comprising heavy chain variable region SEQ ID NO: 11 (antibody, V domains shown, IgG1 format, common light chain VK1-39/JK1) VH: EVQLVESGGGLVQPGGSLRLSCAASGFTFSSYAMIWVRQAPGKGLEWVSAISGSGGYTFNADSVKGRFTMSRDNSKNTLYLQMNSLRAEDTAVYYCAKRDGGYEGGAFDIWGQGTLVTVSS VL: not shown | no binding (tested: 2.5 ug/ml) | binds
anti-human FAP bivalent monospecific IgG comprising heavy chain variable region SEQ ID NO: 19 (antibody, V domains shown, IgG1 format, common light chain VK1-39/JK1) VH: EVQLVESGGGLVKPGGSLRLSCAASGFPFNYAWMSWVRQAPGKGLEWVGRIKPKTSGGATDYAAPVKDRFTISRDDSRNTLYLQMNSLKTEDTAVYYCSAREDIWNFFFDLWGQGTLVTVSS VL: not shown | no binding (tested: 2.5 ug/ml) | binds
anti-human FAP bivalent monospecific IgG comprising heavy chain variable region SEQ ID NO: 15 (antibody, V domains shown, IgG1 format, common light chain VK1-39/JK1) VH: QLQLQESGPGLVKPSETLSLTCTVSGGSISSSSYFWAWIRQPPGKGLEFIGNIYYSGSTYYNPSLKSRVTISVDTSKNQFSLKLSSVTAADTAVYYCARPSYYGSGNYYFAFWGQGTLVTVSS VL: not shown | no binding (tested: 2.5 ug/ml) | binds
